Test: label from the status in PepcDB records

Row | Sequence | protein production
1 | MLSIEVTVFAAIAYLTILFSIAYRGDRGASNRVRPYRYSLAQGVHCTSWAFFGTITQSAYYGWAFAPTYVGAIIVFILLHSLQLKLLNYCKHQNITSIADLIGTRYGKSPVLAGVVAITAFIAVVPYISLQLRAVTSSFATVTGFDTNPSWIFDLSFLVALTMIGFGFLFGTRRLSLAEQHSGLMDAIAFESLVKLAAFIIVGLFASYTVFDGLADLFQKSFETQHTQDVLAGREYGGYVFAVHMLLGGLSMFSLPRQFHVGYVENTHSDELKTARWAFPLYLFAINFFILPLSLSALHLAPELANQDTFMLVIPLMMDRPDITLIAFIGGLSAATSMVIIALLALSIMVSNDVVMPIWLRMTRQKLRQFSFTPTRILSIRRMTMVVVMFMAYLYYQATIESMPLVNSGLLSLALLTQLTPAILATVLWRSATQTGVLVGLVVGTALWVILLLVPSIGLQPQVTDIDIANGVLISLGANLICFWLFSLISKNVQTDLQSIQSSDDYEQQPSLTWARLRSLLSRFYDDRQLAAIQRRLRMDLLTPEGQSMVPAPMLVRIERELSAVIGTSASRLLLDTVSEQQEFPVSRVVDWATEASKLYQFNRELLQASVENIPQGISVVDQKLRLVAWNRRYLEIFDYPDGLVRAGMPVEELLRYNARRGLLSNSQNTDVEAEIQKRLNFLRTGSTYHYQRQQGELTVELQGSPMPGGGFVTTYSDITERVEAQRQLQKINQELEERVDERTQQLLSAKEAEEKAHESKSRFFAAVSHDLMQPFNAASLFCEMLQSRLPNEYLPLAVNIQRSLDHAEELLTMLLDMTKLDAGNLKPDYQEFSIDQALLPLVERYQAMAKEKQLRFHYHKSSALVKTDRKLLNRIIQNLLSNALRYTQHGRIVLGFRRHQQHLTICIIDTGSGIPEHKQTEIFREFHQLQSSGDNPGLGLGLSIVERMCRLLRIDLSLSSTLDKGTAFSLTLPVIGWQKEPQPVVIKNDSVDEKLLKDMRVLVIDNDPGVLKATAGLLTDWGAETMTASSFDQARKHPPCDLILADYHLDNGNTGIELVVSIRKLWNSNTPAIINSADPDELLREQALEANAYFIPKPLKSGALKRLLKRIRRI | failed
2 | MLSIGSGKLLIGCVAGLLVLGGATLGLGIGGFADVPADSETTVGEDELEIRAVQTPTEIRPDEPLRVQLRLTNAGSETTTKQVALQLSGDGDQQSLETVATKQVEVSAAEPTNVTLTVEPEQLSSGEYTYAVAVGESSSPETTGSVAVLTPPTFVLDDTTENATIVRGTNVSIRANLTNAGAYRGVQTVRIAVDEDQNGQYTDAERLDESVYSLAGGQSQVSTATAHTTDMEPGRYQYKIATENTTATGTLSVQQPATFRVQNTTAPVNVTKGETANVSVVVKNVGDVDGTDNVTIRSDSLNTTYSRSVSLAANETTTVSIGVNTTNLSSGTHNHSLGTSTDTDPVSMTVQDSHFEVSDLDGPNVLYVGDMAVFSADVTNTGNITGTQSIQHRIDSDDDDRPEAYGVDRNVTLAPGESTRVRFEIDYTVTDSTEYPVEPLRLQTYVHGIYSEDARASTAMSVKPSWAKDGGSSSYSGSTSVSEGDRASLDEITQDKYGRHYDEVSGETKRQVEEIHERQPFADGLAAAEVRTREEIARQEYDADVKAGEKFNFTGLDIETQQKVESDFDAQFETDSGDRIESWDELANDTYETSYENLTTSRQADIRTTYQDQFE | failed
3 | MLSINPNEQTEKDNYKLLTGSIIPRPVAFVTSVTKEGVLNGAPYSYFNIVAANPPLISVSVQRKAGERKDTSRNAIEKGEFVVHISDESYVAAINETAANLPPNESEIELAKLTPIESEVISVPGVKEANIRMECVLERAIPLGGTEDSPACDLLIGRVVRFHVAEHLYEKGRIHAEGLKPISRLAGHNYAKLGEQFELVRPI | not failed
4 | MLSKILYADSGTSQTQEMLKAMMDFPAVQKASITILHVVPPQITTEAFTEKWAEGGKILADLLEDVAIEPSKVSTVLRQGDPKGVVCDVANEIDADLIIMGSRGLKRLEAILENSVSQYVFQLTNHPMLLVKDDIYVKRIKRVMVALDKSAAAEYALELALELLRDYPEGELILARVNPDLKPDLLPLSRQEIEENPVLAPAIAKAKRLGIAYRCTVTGGKPGEKLCELAEDYNADLMLLGSPDRRPSIAKSLPDLDRLLGTSLSDYIRVNAPCPVLLTRKEGI | failed
5 | MLSSGITKAKGMAVVSEGSVPMDQSVGHLPASLLSLVSDPVPKEKVLLPKALRQTLLEKGCHNVRAHGFDAISTQASACSSVAQAGARHTQPSSRARAQVRGHTGDPLASTVSPDLTPDVYVLRVKLEETGELFRVANCRNDMTVRELKEELDLMVGIPFNLQRLHFLDRGILMDDATLKFYDVIPGALISLCIWHYDGWTELVLAAVEGDPSKMSCLGISEDTFYRTANSQHFKGEQWRQWTAQRAFVALYISAHRGHVDAVQYLLGLGANCLAKSPLGRTPLHVVAAMGRTDCVQPLLEHGASIHDRDLKSDTPITIARRLKRGHLEHKMFLLYWMVKSGSRDPDLVGRKALEKSSPGMATRRSTILIS | failed
6 | MLSTGLDELVYRSNLIGSDRAVCNWGGGNTSMKTVEKDFRGREIAVMWVKGSGSDLATMGAKNFTGLNLEDIRPLIEREEMSDEEMVEYLGHCMIDRNHPRPSIETLLHAFLPFKHVDHTHPDAIISICCADNGKEIAKNLFGDRFVWVPYVRPGFSLSKLIAEGVQKNPHAELVLMEKHGLVVWGETAKESYDRTISVINEAEAYIRSRINESVIFGGGKLEHHHHHH | failed
7 | MLSTTTIGFPRIGNQRQLKFAMESYFKGDSGEAELLAVAHKVQSDAWALQKAAGIAVIGLDGTLYDQVLDTITWLGAIPPRFKHLSGLQRYYAMARGGAALDMSKFFDTNYHYLVPELGPDVLGPATAAGAPLQPDFSGPLDKLARGQAVVGRERAVPILIGPVTFVSLSRGCELPLDQAVARLLPTYCALLQQLAAAGAPEVQLHEPVLATSEGAGMRAEFETAYAQMAQAAGSVPLHLVTYYDDLGAAYPWAVQLPVAAVTLDFLGPPGAAVPSQTLALLQQHGFPADKRLGAGVVDGRSVWKDDGTAVALLRALLDTGAVSSDRLVVTSSAPLQHLPYDLGLELEAPKTPEAEPHLPPALAARLGFAKQKVEEIVSVARLAASPAAAAAAAGHGAVVQLQRLQQGKGVEDHTADIPAEWFSRPKPYDVRREQQLQLPAFPTTTIGSFPQTAEVRRLRQQLKSGRLTQAEYEGLIAGHIAHAVGVQEALGIDVLVHGEAERTDMVEYFGMQLGGMLFTRAGWVQSYGSRCVRPPLVVDDITYRGPMTCWEYKVASAYTRKPVKGMLTGPVTILNWSFPRKDISRAAQAMQLGLALRQEVAALEAAGCTIIQVDDPALREGLPLKRERWASYLSWAVDAFRLCTGVAAAGTQVVTHLCYSDFQDILPAIDRMDADVLTIENSRSDNAMMAALAAAGYGRDIGPGVYDVHSPVVPSVEFIKSRIRSFVDSGILSGRYDRIWVNPDCGLKTRGWPETIAALRNMVEAAAQARAELQLAGGAAVAPVAGGVEAAGKGAALGAAAGTSRCVDCCH | not failed
8 | MLSVFLEIIYERQLRKINLKILTDFINLIKEESLSNGAEFIQVQGGFYFLFKKKSIAYAFSTARFLYNVNKILISYKNKISEVRCITDYYEEDVSNEALFESLSLYKKQLIPEMGMFASREAANKLSKYIDFNETDSSILLCNAFKFFENINLTSNKNADKNASIILHRNDNYFWSIYNFILANPLDNDSLKAMSNEDRISFLATKNVYIYLKKHRFSKDMPQYFIDAFLTNAAIYLKNYIKKQNGRRSVKVLIDNLNDKKNLDEAEKIYAVNKYMEIEALDSSLPSIYNIPDDLLQLIYIILVSSKYFFYDEITDFLVSLNKSKAFFDDVYAWMYSMGIILVENNIYAVPYGLPEIIERRINLSKNMVDSNITEYLWAKYKKGILNANSDAEKIFDSLNFKCKPDFLLASIFHNYSDSSIEGLDLKKYKNEIFYDALKYYQNSIIANIDDSTAKSYAYLKTAIGFFQENKLESGEYRAFSLLAFFNLMQNKISDAITYFSYALDNAEHSHDTSFICDALFNISIVYFLQNNLKQSITFLDRLAAAVDEYFEQDWKIPYLFMKGRVYLQIGEFNKAADSFRMASDFADLYFDKIEPLCKSWYGRSLIYMGQIKNGQEILIKYIDYTDDALLFLLESFLFYPVLNNDFEKMDLDISSIYSAYNNSGLTDFINLKSGFSIAEDLIWSNIYDMSIGKKMFDAFYNYYNCKINFSKMYDIEECKILLSNLEASAVESLYQNDPYSSLYMYLCYDLSVKLYGENSSQTIAYLSKAFKSMQKNVLAIGENDIRDKYMQNNLWNSKLFKVAKNQKLI | failed
9 | MLSYDIEVLKIINDEDNISQRRLAEMLNISLGKINSLLKELLTKEYIVKIDIDKRNVKYELTEAGIALLENSLDKVKSTKLSIHKHKFHKVKQAVILGAGGKGDFGKPAGFLELEEFRIIDRIIDILKSNGIEKIVIVNGYKKEYYEELAEKDSTIFCVTNSNYKWTGTMSSLALAKEYIDDDFILVENDLVFESRAVEQIIKNDNRDCVLITNESGSGDEAFVEIRDGYLFKMSKDVHQFNKIDGEMIGISKISYKLFKMMLEEFKHNINPYMNYEYTMLDVARNYKVGYEKINDLVWGEIDNKDQYEKVKKHIIPMIRRKEMQYKIDQVKSAIVNGLKVSEEEVKEIVPVGGMTNKNYKAFVNDKAYIVRIPGLGTSSMINRRDEMINSKLAADEGIDAKILFFDEESGVKIAELIEGAETLNPATAKKKENMELVVGALRTLHNSEIKMENRFNVFEKIEDYESLVKKVSGTLFEDYYEIKTRVLKLEKVLEDNGMEIKPCHNDTVPENFVKDINERMYLIDWEYSGLNDPMWDLAAHSIECDFSEDDEELFLNLYFNNLIEDKHKIRILVYKICQDFLWSIWTILKEAQGDDFGTYGIDRYNRGKKNLELLDKILMGQ | failed
10 | MLSYDLNERLLTAVQSGDFEQALGCIMQGAQASYVSPTCGRTAVGTAAILGDAELLELLLQSCEEPELNVFHQSNTDSLEIERTPEGMEKLEWVDEFENSAENGAGSGEEDSQLYQYYAKTFETTGEFISSQCCVSCREHDPHLYDADVATPLHYAAYWGHEECVRILLEHNAPINVLNNDGYAPLHLGAGFAGVTELLIKHGALVNAKTLSDGKTALHMAIESKCAESARLLLQTNININDTDDDGETPLMAAIACSMLDVAEELVKRGARINIQDKQNHTALQYAVRGRHTQMAKLLLERGARRLASQHLLHLAVESNVKELVELLLQYGESLSVWNLKNFTPIMLAIHRGRHEMLEYLLNVAEEQRKLGLYSDVHDEGLVLFAVQQNFWVKEFSRILRVLLAKSPSARNDFYDSCAPTIVCGLIYCHTPLSRAINLHRLEVAEFLIHEGCNLAQICREHVVNELRSNCTPTRLAFARLLCNAGFQFPHKHRPLPKDWPPARLEFEREMCLLGTQPRSLQSLARLEIRRSLLRCLQTRPEVQERYLPTQERSSLGRIVDEFAIPATLKRYLSDFDELPPVRGMEPVDIPVVKWTESWD | failed
11 | MLSYKHSNATLPILWGEAKRGDFDDLDKAFTQLLLTIGKHRLYTHHTPPYLCAFNAFKMEFIAFDDTITSFFYKSDIDFSITPSNHNTEGFKHALDAFKAMSKSHKFVFDFKTQSQECKEFIKNRLNSSHLLSKIQIDKNNFFTIYQKWLEIVKPTIDINWEVAKTKDILDADYYLADLLSDGDKTIIEKLHTILRSSHYKLNRGVNELGKMDFMEVGFTDSQQAHQEFWSVYERPPKREFQASILERRDLLVPSDVRERKGAFFTPKIWVEKSQEYLAKALGQDYQEDCIIWDCAGGTGNLLRGLLNKANLYLSTLDHNDVAIVKDLAAKNHLKLLENHVFQFDFLNDDFFSDKTPKSLQEILKDKEKRKKLIIYINPPYAEAGNKSKMSGTGEHKAKVARDNLICEKYKNELGKANNEVFAQFFMRIYKELNGVILASFSTLKNLQGSNFKKFREIFKAKFLEGFMVPADTFDNVRGQFPIGFLVWDTSSILPKENPLNLGGNSKEEKQNSNLILDQDNLKDNPLKERFCLLDINAPNRKMCSQSRTRTKGTQKHSTAAPFETPLHTVSLEIFDSFGGFLGSKKIYTHTIDKMLTLADYLQKFQPTKRDTIFGYLDPGRNSFQHQNLIHISIIDKSKQSHVKYFPIIATTILLVSVFFSIRHCIKATWQNDRDQFYAPYDDAFQDDSEFKNNCLIFMLFHTQNRITTAQGTNHFIPFSETEVNAKERYSSHALLEFLKGEIKELKENDSLFLSAKKENKPLKFSPSASKVFDASREVYRYYHTQDFTNRPYNANASLYDIKEFFQGRNKQGKLNLPAKAKDEYYKQLYANLQDALKDLAKEIQPKVYEYGFLRE | failed

Source: a protein production outcome set (Wang et al. 2014)
